Measured values published in PMC3896444, “Structural Basis of Thermal Stability of the Tungsten Cofactor Synthesis Protein MoaB from Pyrococcus furiosus” (PLoS ONE, 2014).
Changes are numbered by the printed parent chain. Names may count otherwise. “And” between values parts separate entries of the source, which are not always exact repeats. Equal entries are not always repeated.

Key:
[1] = target: PfuMoaB-H3 variant (α3-helix exchanged against the corresponding helix of E. coli MogA) (Pyrococcus furiosus) (UniProt Q8U3T3); experiment: cross-linking; 0.5 mg/ml protein, 1.5 mM BS3, 20 mM sodium phosphate pH 8.0, 0.2 M NaCl, 30 min; SDS-PAGE
[2] = target: PfuMoaB-H3 variant (α3-helix exchanged against the corresponding helix of E. coli MogA) (Pyrococcus furiosus) (UniProt Q8U3T3); experiment: cross-linking; 0.5 mg/ml protein, 2 mM EDC, 0.1 M MES pH 6.0, 0.5 M NaCl, 3 h; SDS-PAGE; trimer bands analysed by LC-MS/MS
[3] = target: PfuMoaB-H3 variant (α3-helix exchanged against the corresponding helix of E. coli MogA) (Pyrococcus furiosus) (UniProt Q8U3T3); experiment: SEC; analytical Superdex 200 10/300, 0.1 M Tris pH 8.0, 0.2 M NaCl, 0.5 ml/min, 4°C; 5-10 nmol of Ni-NTA purified protein; masses by standard proteins
[4] = target: the molecule itself; experiment: as above
[5] = target: the molecule itself; experiment: cross-linking; 0.5 mg/ml protein, 2 mM EDC, 0.1 M MES pH 6.0, 0.5 M NaCl, 3 h; SDS-PAGE; trimer bands analysed by LC-MS/MS
[6] = target: the molecule itself; experiment: crystal structure; space group P3(1)21, three chains in the asymmetric unit, hexamer by the two-fold crystallographic axis; crystals from 0.1 MES pH 6.0, 40% PEG 400, 5% PEG 3000, 20°C; 2.5 Å
[7] = target: the molecule itself; experiment: SEC; preparative Superdex 200 16/60 pg, Ni-NTA purified protein; fractions analysed by SDS-PAGE

PfuMoaB-H3 variant (α3-helix exchanged against the corresponding helix of E. coli MogA) (from UniProt Q8U3T3 1-169) (enzyme)
stoichiometry N [1]: 3 and 2
stoichiometry N [2]: 2 and 3
stoichiometry N [3]: 3 and 2

B1: E. coli MoaB (natural protein, Escherichia coli, UniProt P0AEZ9 1-170, looked up)
chain: MSQVSTEFIPTRIAILTVSNRRGEEDDTSGHYLRDSAQEAGHHVVDKAIVKENRYAIRAQVSAWIASDDVQVVLITGGTGLTEGDQAPEALLPLFDREVEGFGEVFRMLSFEEIGTSTLQSRAVAGVANKTLIFAMPGSTKACRTAWENIIAPQLDARTRPCNFHPHLKK
notes: MoaB of Escherichia coli; also called EcoMoaB; source: E. coli, purified (Ni-NTA)
stoichiometry N [4]: 6

B2: Pyrococcus furiosus MPT-adenylyl-transferase MoaB, wild type (enzyme)
chain: MGVEEHKKEAPKTFKFGVITVSDKGAKGEREDKSGPLIIEELSKLGEHVYYKIVPDDKIEVLIALFEAIKSGADVVVTTGGTGITRRDITIESIKPLFDKELSFGEVFRAKSYEEVGYATVLTRATAGIIRGQERIVVVFSLPGSVNAVKTGLEIIKSEVFHILKHARE
notes: MoaB, MPT-adenylyl-transferase of Pyrococcus furiosus; residues from 1 on are in the construct (1-9/10/11 disordered in the crystal), Glu169 is named; predicted mass with tag 19,971.95 Da; also called PfuMoaB; PfuMoaB-WT; source: E. coli BL21(DE3), purified (Ni-NTA); not shown: His-tag, N-terminal, kept
stoichiometry N [5]: 3 and 2
stoichiometry N [6]: 6

B3: PfuMoaB I59R/I63R/F66R variant (enzyme, Pyrococcus furiosus)
chain: B2 chain with I59R, I63R, F66R
notes: MoaB of Pyrococcus furiosus with three arginines in the α3-helix; Increased tendency to precipitation was observed
binding result [7]: binds

B4: G-domain of A. thaliana Cnx1 (domain or fragment, Arabidopsis thaliana)
chain: VPGPEYKVAILTVSDTVSAGAGPDRSGPRAVSVVDSSSEKLGGAKVVATAVVPDEVERIKDILQKWSDVDEMDLILTLGGTGFTPRDVTPEATKKVIERETPGLLFVMMQESLKITPFAMLSRSAAGIRGSTLIINMPGNPNAVAECMEALLPALKHALKQIKGDKR
notes: G domain of the molybdenum cofactor biosynthesis protein Cnx1 of Arabidopsis thaliana; also called AthCnx1G; Cnx1G; source: E. coli, purified (Ni-NTA)
stoichiometry N [4]: 3

B5: E. coli MogA (enzyme, Escherichia coli, UniProt P0AF03 1-195, looked up)
chain: MNTLRIGLVSISDRASSGVYQDKGIPALEEWLTSALTTPFELETRLIPDEQAIIEQTLCELVDEMSCHLVLTTGGTGPARRDVTPDATLAVADREMPGFGEQMRQISLHFVPTAILSRQVGVIRKQALILNLPGQPKSIKETLEGVKDAEGNVVVHGIFASVPYCIQLLEGPYVETAPEVVAAFRPKSARRDVSE
notes: MogA, MPT-adenylyl-transferase of Escherichia coli; also called EcoMogA; MogA (E. coli); source: E. coli, purified (Ni-NTA); not shown: His-tag, N-terminal, kept
stoichiometry N [4]: 3
